Literature values, collected in publication PMC9464413.

Biological target: p97 (Homo sapiens) (UniProt P55072)
Experiment: SPR

UniProt P55072, sequence (P55072 2-806): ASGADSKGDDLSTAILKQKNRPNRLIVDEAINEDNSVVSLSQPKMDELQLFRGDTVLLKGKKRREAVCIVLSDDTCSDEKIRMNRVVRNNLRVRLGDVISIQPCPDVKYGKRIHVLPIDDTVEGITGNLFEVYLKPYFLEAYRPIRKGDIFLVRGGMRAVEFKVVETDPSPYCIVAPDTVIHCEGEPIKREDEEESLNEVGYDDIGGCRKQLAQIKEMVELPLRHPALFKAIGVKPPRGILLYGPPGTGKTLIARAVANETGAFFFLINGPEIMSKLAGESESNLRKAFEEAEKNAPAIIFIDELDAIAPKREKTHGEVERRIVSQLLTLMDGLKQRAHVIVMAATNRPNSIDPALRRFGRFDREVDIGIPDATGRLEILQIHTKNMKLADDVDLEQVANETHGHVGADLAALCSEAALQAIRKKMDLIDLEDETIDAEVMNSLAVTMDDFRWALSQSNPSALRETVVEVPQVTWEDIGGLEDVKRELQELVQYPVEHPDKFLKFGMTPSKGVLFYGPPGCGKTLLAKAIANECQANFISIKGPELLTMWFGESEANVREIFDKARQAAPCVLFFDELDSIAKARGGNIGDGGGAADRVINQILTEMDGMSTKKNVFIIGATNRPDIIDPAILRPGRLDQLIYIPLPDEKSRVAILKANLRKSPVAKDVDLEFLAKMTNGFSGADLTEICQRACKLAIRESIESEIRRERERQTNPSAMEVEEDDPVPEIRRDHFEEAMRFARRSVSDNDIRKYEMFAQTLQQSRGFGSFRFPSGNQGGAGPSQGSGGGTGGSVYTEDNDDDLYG

Row | Substance | Kd
1 | p47 (from UniProt Q9UNZ2) | 20 nM
2 | p37 (from UniProt Q14CS0) | 29 nM
